Laboratory results as given in PMC2807882, “Conservation of DNA-binding specificity and oligomerisation properties within the p53 family”.

T1: p73CT (Homo sapiens, UniProt O15350 104-383)
T1 sequence: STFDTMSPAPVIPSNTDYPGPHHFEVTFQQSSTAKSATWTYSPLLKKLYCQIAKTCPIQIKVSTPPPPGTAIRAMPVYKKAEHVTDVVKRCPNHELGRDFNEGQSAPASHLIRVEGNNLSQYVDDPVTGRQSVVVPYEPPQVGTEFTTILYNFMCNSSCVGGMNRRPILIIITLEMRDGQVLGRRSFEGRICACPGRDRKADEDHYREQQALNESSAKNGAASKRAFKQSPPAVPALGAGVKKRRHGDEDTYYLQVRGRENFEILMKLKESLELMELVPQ

T2: Dmp53 (Drosophila melanogaster, UniProt Q9N6D8 1-385)
T2 sequence: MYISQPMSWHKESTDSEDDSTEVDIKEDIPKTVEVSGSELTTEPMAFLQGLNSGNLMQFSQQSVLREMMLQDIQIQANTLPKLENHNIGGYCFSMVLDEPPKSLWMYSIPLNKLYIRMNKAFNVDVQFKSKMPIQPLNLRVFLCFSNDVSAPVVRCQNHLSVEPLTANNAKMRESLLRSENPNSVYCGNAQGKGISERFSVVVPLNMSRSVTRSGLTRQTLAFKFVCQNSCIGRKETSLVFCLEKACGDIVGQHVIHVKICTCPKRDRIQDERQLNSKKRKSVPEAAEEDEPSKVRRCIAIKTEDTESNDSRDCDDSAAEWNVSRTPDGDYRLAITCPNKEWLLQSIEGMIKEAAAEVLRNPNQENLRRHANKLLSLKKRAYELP

T3: Drp53 (Danio rerio, UniProt P79734 1-373)
T3 sequence: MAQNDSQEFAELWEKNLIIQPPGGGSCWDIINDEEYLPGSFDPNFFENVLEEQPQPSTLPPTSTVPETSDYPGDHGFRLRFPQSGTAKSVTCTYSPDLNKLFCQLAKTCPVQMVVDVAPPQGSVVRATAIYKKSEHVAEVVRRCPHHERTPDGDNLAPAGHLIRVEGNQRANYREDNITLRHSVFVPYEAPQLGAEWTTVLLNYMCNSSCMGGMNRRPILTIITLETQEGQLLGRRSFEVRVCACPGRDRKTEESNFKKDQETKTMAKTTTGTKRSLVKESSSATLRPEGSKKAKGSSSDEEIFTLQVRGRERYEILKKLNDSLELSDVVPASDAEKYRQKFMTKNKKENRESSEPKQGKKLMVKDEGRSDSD

T4: ΔNp63β (Homo sapiens, UniProt Q9H3D4-4 1-461)
T4 sequence: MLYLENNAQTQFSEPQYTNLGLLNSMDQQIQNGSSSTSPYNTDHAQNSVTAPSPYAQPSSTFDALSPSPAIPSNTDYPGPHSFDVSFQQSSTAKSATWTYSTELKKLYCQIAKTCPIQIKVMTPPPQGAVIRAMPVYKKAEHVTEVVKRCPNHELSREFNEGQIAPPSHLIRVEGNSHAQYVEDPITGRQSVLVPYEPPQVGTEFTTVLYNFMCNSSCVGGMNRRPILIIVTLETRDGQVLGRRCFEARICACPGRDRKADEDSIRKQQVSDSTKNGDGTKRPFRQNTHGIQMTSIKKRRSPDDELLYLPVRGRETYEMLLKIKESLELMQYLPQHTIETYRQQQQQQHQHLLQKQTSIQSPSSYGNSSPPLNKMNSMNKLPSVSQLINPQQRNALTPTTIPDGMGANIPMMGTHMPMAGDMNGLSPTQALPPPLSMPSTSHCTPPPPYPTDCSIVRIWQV

T5: ΔNp63γ (Homo sapiens, UniProt Q9H3D4-6 1-393)
T5 sequence: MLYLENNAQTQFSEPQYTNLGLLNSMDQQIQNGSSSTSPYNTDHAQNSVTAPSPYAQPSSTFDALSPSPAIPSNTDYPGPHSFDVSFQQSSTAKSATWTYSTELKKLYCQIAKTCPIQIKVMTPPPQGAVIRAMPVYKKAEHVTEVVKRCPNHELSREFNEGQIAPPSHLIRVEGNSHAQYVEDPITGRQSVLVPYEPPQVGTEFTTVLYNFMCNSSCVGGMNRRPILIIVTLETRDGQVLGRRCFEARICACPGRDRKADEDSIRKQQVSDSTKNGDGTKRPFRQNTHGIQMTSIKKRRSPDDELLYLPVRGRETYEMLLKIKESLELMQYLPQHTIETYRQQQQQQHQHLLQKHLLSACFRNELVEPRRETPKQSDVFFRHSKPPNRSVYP

B1: Ref_Alexa488 (dsDNA)
DNA 1: GGACATGTCCGGACATGTCC
DNA 2: GGACATGTCCGGACATGTCC
B2: Ref competitor (dsDNA)
DNA 1: CGCGGACATGTCCGGACATGTCCCGC
DNA 2: GCGGGACATGTCCGGACATGTCCGCG

What was measured:
p73CT = target: T1, p73CT; test: fluorescence anisotropy, direct; 25 mM NaPi, 225 mM NaCl, 10% v/v glycerol, 5 mM DTT, 0.2 mg/mL BSA, 22°C; 20 nM labelled DNA; pH not stated for the binding assay; conditions: protein: recombinant; tags: N-terminal 6xHis-lipoyl-TEV tag, cleaved; chain copies: 4; label: 5'-Alexa488
Hsp53 = Hsp53 (Homo sapiens, UniProt P04637 1-393); test: as above; conditions: protein: recombinant; tags: N-terminal 6xHis-lipoyl-TEV tag, cleaved; chain copies: 4; label: 5'-Alexa488
Dmp53 = target: T2, Dmp53; test: as above; conditions: protein: recombinant; tags: N-terminal 6xHis-lipoyl-TEV tag, cleaved; chain copies: 4; label: 5'-Alexa488
Drp53 [1] = target: T3, Drp53; test: as above; conditions: protein: recombinant; tags: N-terminal 6xHis-lipoyl-TEV tag, cleaved; chain copies: 4; label: 5'-Alexa488
Mmp53 = Mmp53 (Mus musculus, UniProt P02340 1-390); test: as above; conditions: protein: recombinant; tags: N-terminal 6xHis-lipoyl-TEV tag, cleaved; chain copies: 4; label: 5'-Alexa488
ΔNp63β = target: T4, ΔNp63β; test: anisotropy competition; 25 mM NaPi, 225 mM NaCl, 10% v/v glycerol, 5 mM DTT, 0.2 mg/mL BSA, 22°C; 20 nM labelled DNA; pH not stated for the binding assay; conditions: protein: recombinant; tags: N-terminal 6xHis-lipoyl-TEV tag, cleaved; chain copies: 4
ΔNp63γ = target: T5, ΔNp63γ; test: as above; conditions: protein: recombinant; tags: N-terminal 6xHis-lipoyl-TEV tag, cleaved; chain copies: 4
Drp53 [2] = target: T3, Drp53; test: as above; conditions: protein: recombinant; tags: N-terminal 6xHis-lipoyl-TEV tag, cleaved; chain copies: 4

Hsp53, sequence (P04637 whole entry): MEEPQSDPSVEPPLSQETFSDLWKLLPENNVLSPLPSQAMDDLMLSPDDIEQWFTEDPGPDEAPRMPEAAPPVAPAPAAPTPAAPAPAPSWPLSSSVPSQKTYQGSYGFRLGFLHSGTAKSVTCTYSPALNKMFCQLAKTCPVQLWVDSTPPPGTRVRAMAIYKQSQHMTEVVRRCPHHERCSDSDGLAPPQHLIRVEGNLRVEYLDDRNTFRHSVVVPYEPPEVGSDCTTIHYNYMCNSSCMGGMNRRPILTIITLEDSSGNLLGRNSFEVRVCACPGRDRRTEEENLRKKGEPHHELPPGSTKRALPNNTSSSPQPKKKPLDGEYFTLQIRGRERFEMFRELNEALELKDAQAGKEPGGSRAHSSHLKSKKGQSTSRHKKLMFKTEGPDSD
Mmp53, sequence (P02340 whole entry): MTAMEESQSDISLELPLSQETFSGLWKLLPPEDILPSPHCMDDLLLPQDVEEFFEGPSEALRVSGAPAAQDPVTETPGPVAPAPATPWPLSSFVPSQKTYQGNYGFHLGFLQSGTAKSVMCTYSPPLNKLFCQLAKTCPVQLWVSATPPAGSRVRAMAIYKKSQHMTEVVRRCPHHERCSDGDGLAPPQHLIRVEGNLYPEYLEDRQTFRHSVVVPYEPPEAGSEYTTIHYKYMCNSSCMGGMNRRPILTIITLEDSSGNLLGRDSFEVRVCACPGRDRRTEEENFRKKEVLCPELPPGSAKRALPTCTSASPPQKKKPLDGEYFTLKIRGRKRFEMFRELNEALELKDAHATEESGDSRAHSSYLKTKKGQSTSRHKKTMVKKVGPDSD

| Binder | Kd (p73CT) | Kd (Hsp53) | Kd (Dmp53) | Kd (Drp53 [1]) | Kd (Mmp53) | Kd (ΔNp63β) | Kd (ΔNp63γ) | Kd (Drp53 [2]) |
| --- | --- | --- | --- | --- | --- | --- | --- | --- |
| B1 | -6.62 ± 0.04 log10(M) | -7.25 ± 0.03 log10(M) | -7.28 ± 0.03 log10(M) | -7.2 ± 0.03 log10(M) | -7.02 ± 0.04 log10(M) |  |  |  |
| B2 |  |  |  |  |  | -7.45 log10(M) | -7.48 log10(M) | -7.42 log10(M) |
